Measured values: patent US20220259593A1, “CONTROL OF MAMMALIAN GENE DOSAGE USING CRISPR” (The Regents of the University of California, priority 2019, published 2022)
Numbering of substitutions follows the chain as printed.

B1: cr925 (nucleic acid)
guide: GTTTAAGAGCTAAGCTGGAAACAGCATAGCAAGTTTAAATAAGGCTAGTCCGTTATCATCGAGAAATCGAGGCACCGAGTCGGTGCT
modifications: listed as DNA, chemistry not fully specified
B2: cr234 (nucleic acid)
guide: B1 guide with T59A, G61T, A62C, T67A, C68A, A70T
modifications: listed as DNA, chemistry not fully specified
B3: cr820 (nucleic acid)
guide: B1 guide with T59A, G61T, A62G, A65G, T67C, C68A, A70T
modifications: listed as DNA, chemistry not fully specified
B4: cr801 (nucleic acid)
guide: B1 guide with T59G, G61T, A62T, T67A, C68A, A70C, C73A, C75G, G83C, G85T
modifications: listed as DNA, chemistry not fully specified
B5: cr592 (nucleic acid)
guide: B1 guide with C45T, G48A, T59A, G61T, A62T, T67A, C68A, A70T
modifications: listed as DNA, chemistry not fully specified
B6: cr971 (nucleic acid)
guide: B1 guide with T59A, G61T, A62T, G63A, A65T, T67A, C68A, A70T
modifications: listed as DNA, chemistry not fully specified
B7: cr730 (nucleic acid)
guide: GTTTAAGAGCTAAGCTGGAAACAGCATAGCAAGTTTAAATAAGGCTAGTCCGTTATCAACTTGAAAAAGTGGGGGCGAGTCGCCCCT
modifications: listed as DNA, chemistry not fully specified
B8: cr019 (nucleic acid)
guide: B7 guide with G7C, G73C, G74A, G75C, C83G, C84T, C85G
modifications: listed as DNA, chemistry not fully specified
B9: cr408 (nucleic acid)
guide: B7 guide with A65G, G72A, G73C, G74A, G75C, C83G, C84T, C85G, C86T
modifications: listed as DNA, chemistry not fully specified
B10: cr283 (nucleic acid)
guide: B7 guide with G72A, G73C, G74A, G75C, C83G, C84T, C85G
modifications: listed as DNA, chemistry not fully specified
B11: cr464 (nucleic acid)
guide: B1 guide with T59C, G61T, A62T, T67A, C68A, A70G, G77A, C81T
modifications: listed as DNA, chemistry not fully specified
B12: cr948 (nucleic acid)
guide: B1 guide with T59A, G61T, A62T, T67G, C68A, A70T
modifications: listed as DNA, chemistry not fully specified
B13: cr354 (nucleic acid)
guide: B7 guide with A59G, T70C, G72A, G73T, G74A, G75C, C83G, C84T, C85A, C86T
modifications: listed as DNA, chemistry not fully specified
B14: cr619 (nucleic acid)
guide: B7 guide with A64G, G73C, G74A, G75C, C83G, C84T, C85G
modifications: listed as DNA, chemistry not fully specified
B15: cr239 (nucleic acid)
guide: B7 guide with T53C, A64T, G73C, G74A, G75C, C83G, C84T, C85G
modifications: listed as DNA, chemistry not fully specified
B16: cr655 (nucleic acid)
guide: B7 guide with T54C, G73C, G74A, G75C, C83G, C84T, C85G
modifications: listed as DNA, chemistry not fully specified
B17: cr494 (nucleic acid)
guide: B1 guide with T59A, G61T, A62T, C68A, A70T
modifications: listed as DNA, chemistry not fully specified
B18: cr121 (nucleic acid)
guide: B1 guide with G61A, A62T, T67A, C68T
modifications: listed as DNA, chemistry not fully specified
B19: cr302 (nucleic acid)
guide: B7 guide with T61G, A68C, G73T, G74C, G75C, C83G, C84G, C85A
modifications: listed as DNA, chemistry not fully specified
B20: cr366 (nucleic acid)
guide: B1 guide with T59G, G61T, A62T, T67A, C68A, A70C, C76T, G82A
modifications: listed as DNA, chemistry not fully specified
B21: cr898 (nucleic acid)
guide: B7 guide with A32C, A65G, G73C, G74A, G75C, C83G, C84T, C85G
modifications: listed as DNA, chemistry not fully specified
B22: cr323 (nucleic acid)
guide: B7 guide with A32G, A65C, G73C, G74A, G75C, C83G, C84T, C85G
modifications: listed as DNA, chemistry not fully specified
B23: cr888 (nucleic acid)
guide: B7 guide with G63T, A65C, G73C, G74A, G75C, C83G, C84T, C85G
modifications: listed as DNA, chemistry not fully specified
B24: cr020 (nucleic acid)
guide: B7 guide with G7T, G73C, G74A, G75C, C83G, C84T, C85G
modifications: listed as DNA, chemistry not fully specified
B25: cr603 (nucleic acid)
guide: B7 guide with A65G, A66C, G73C, G74A, G75C, C83G, C84T, C85G
modifications: listed as DNA, chemistry not fully specified
B26: cr557 (nucleic acid)
guide: B7 guide with A19C, G73C, G74A, G75C, C83G, C84T, C85G
modifications: listed as DNA, chemistry not fully specified
B27: cr701 (nucleic acid)
guide: B7 guide with G73C, G74A, G75C, G79C, C83G, C84T, C85G
modifications: listed as DNA, chemistry not fully specified
B28: cr113 (nucleic acid)
guide: B7 guide with A55T, G73C, G74A, G75C, C83G, C84T, C85G
modifications: listed as DNA, chemistry not fully specified
B29: cr018 (nucleic acid)
guide: B7 guide with G7A, G73C, G74A, G75C, C83G, C84T, C85G
modifications: listed as DNA, chemistry not fully specified
B30: cr941 (nucleic acid)
guide: B1 guide with T59A, C60A, G61T, A62G, T67C, C68A, G69T, A70T, G72A, C86T
modifications: listed as DNA, chemistry not fully specified

Each molecule was assayed on K562 CRISPRi cells (assay: Constant region variant library pooled growth screen, K562). Conditions: sgRNA constant region variants; activity relative to the original, un-modified constant region cr995.
Type: cell-based, human
Procedure, shortened: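 Pooled library transduced into K562 CRISPRi cells in duplicate, puromycin-selected, grown at >2000× coverage and sampled after 4 to 8 days. Phenotypes per targeting sequence:constant region pair were normalized to the unmodified-scaffold pairing to give relative activity.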

Molecule	Mean relative activity
B1	1.084
B2	1.075
B3	1.072

Same assay, conditions: sgRNA constant region variants; relative to the original, un-modified constant region cr995 (= 1)

Molecule	Mean relative activity
B4	1.02
B5	1.017
B6	1.017
B7	1.018
B8	1.019
B9	1.018
B10	1 .01760152
B11	1.017
B12	1.02
B13	1.016
B14	1.015
B15	1.014
B16	1.016
B17	1.016
B18	1.014
B19	1.016
B20	1.017
B21	1.014
B22	1.02
B23	1.02
B24	1.02
B25	1.018
B26	1.018
B27	1.016
B28	1.016
B29	1.017
B30	1.016
